Values belong to the molecule of their own block, whether it stands above or below them.
Tests used:
[1] = target: human EphB2 full-length N482Q (human) (UniProt P29323)
[2] = target: human EphB2 full-length Q472A/Y473A/E480A/Y481A (human) (UniProt P29323)
[3] = target: human EphB2 full-length Y481E (human) (UniProt P29323)
[4] = target: the molecule itself; experiment: crystal structure; unliganded EphB2-ECD at 10 mg/mL in HBS, hanging drop at room temperature, 1.1 M Na Succinate, 0.1 M Na Acetate pH 4.8, 5% MPD, 3% 1,6-Hexanediol; 3.1 Å; head-to-tail contact between neighbouring molecules in the crystal

Molecule: human EphB2 full-length N482Q (from UniProt P29323 19-1055) (receptor)
EphB2 phosphorylation in HEK293 cells after ephrin stimulation (anti-phosphotyrosine IP, anti-EphB2 blot), band intensity compared with the wild-type receptor (% higher than wild type) [1]: 40

B1: mouse EphB2 extracellular domain (ECD) (residues 19-543) (domain or fragment, UniProt P54763 19-543, looked up)
chain: VEETLMDSTTATAELGWMVHPPSGWEEVSGYDENMNTIRTYQVCNVFESSQNNWLRTKFIRRRGAHRIHVEMKFSVRDCSSIPSVPGSCKETFNLYYYEADFDLATKTFPNWMENPWVKVDTIAADESFSQVDLGGRVMKINTEVRSFGPVSRNGFYLAFQDYGGCMSLIAVRVFYRKCPRIIQNGAIFQETLSGAESTSLVAARGSCIANAEEVDVPIKLYCNGDGEWLVPIGRCMCKAGFEAVENGTVCRGCPSGTFKANQGDEACTHCPINSRTTSEGATNCVCRNGYYRADLDPLDMPCTTIPSAPQAVISSVNETSLMLEWTPPRDSGGREDLVYNIICKSCGSGRGACTRCGDNVQYAPRQLGLTEPRIYISDLLAHTQYTFEIQAVNGVTDQSPFSPQFASVNITTNQAAPSAVSIMHQVSRTVDSITLSWSQPDQPNGVILDYELQYYEKELSEYNATAIKSPTNTVTVQGLKAGAIYVFQVRARTVAGYGRYSGKMYFQTMTEAEYQTSIKEKLPL
modifications: glycosylated at N265, N336, N428 and N482
notes: EphB2 (ephrin type-B receptor 2), mouse, extracellular domain (LBD, CRD, FN1, FN2), residues 19-543; also called EphB2-ECD; EphB2 ECD; not shown: Fc (human), C-terminal, cleaved
binding result [4]: binds

Further lines, results first:

EphB2 phosphorylation in HEK293 cells after ephrin stimulation (anti-phosphotyrosine IP, anti-EphB2 blot), band intensity compared with the wild-type receptor (% higher than wild type) [2]: 46
Molecule: human EphB2 full-length Q472A/Y473A/E480A/Y481A (from UniProt P29323 19-1055) (receptor)

EphB2 kinase domain phosphorylation in HEK293 cells (anti-phosphotyrosine IP, anti-EphB2 blot), compared with the wild-type receptor (% lower than wild type) [3]: 56
Molecule: human EphB2 full-length Y481E (from UniProt P29323 19-1055) (receptor)

— publication PMC8508685, “The Ephb2 Receptor Uses Homotypic, Head-to-Tail Interactions within Its Ectodomain as an Autoinhibitory Control Mechanism” (International Journal of Molecular Sciences, 2021)
